This note sets out measurements from paper PMC8825819, “Structure of Escherichia coli O157:H7 bacteriophage CBA120 tailspike protein 4 baseplate anchor and tailspike assembly domains (TSP4-N)” (Scientific Reports, 2022).

Data set [1] has as its target TSP4-N181 (AD-XD1 of TSP4) (bacteriophage CBA120) (UniProt G3M192). In words: AUC; sedimentation velocity of single proteins and of mixtures, PBS pH 7.4, 20 °C, absorbance at 280 nm, 30-50 krpm; c(s) by SEDFIT; Kd and koff by Lamm equation modelling with a two-site heterogeneous association model A + B + B = AB + B = ABB (A: TSP4-N335 hexamer, B: partner TSP trimer; two symmetric sites, no cooperativity).

For data set [2], the target named is TSP4-N253 (AD-XD1-XD2 of TSP4, lacking XD3) (bacteriophage CBA120) (UniProt G3M192). The data set is described as above.
Data set [3] has as its target TSP4-N490 (AD-XD1-XD2-XD3 region followed by the D1-D2 head region of TSP4) (bacteriophage CBA120) (UniProt G3M192). The description is as above.
The target of data set [4] is TSP4 devoid of the AD-XD1 domains, residues 185-1036 (bacteriophage CBA120) (UniProt G3M192). The data set is described as above.
Data set [5] deals with TSP4-N335, the 335 N-terminal residues of tailspike protein 4 of bacteriophage CBA120 (AD-XD1-XD2-XD3) (bacteriophage CBA120) (UniProt G3M192). The description is as above.
The target is the same in data set [6]. In words: AUC; sedimentation equilibrium, PBS, 20 °C, 3 or 4 speeds (3000-12,000 rpm); global fit with SEDPHAT; for mixtures the two-site model A + B + B = AB + B = ABB.
Data set [7] deals with the molecule itself. In words: AUC; sedimentation velocity of single proteins and of mixtures, PBS pH 7.4, 20 °C, absorbance at 280 nm, 30-50 krpm; c(s) by SEDFIT; Kd and koff by Lamm equation modelling with a two-site heterogeneous association model A + B + B = AB + B = ABB (A: TSP4-N335 hexamer, B: partner TSP trimer; two symmetric sites, no cooperativity).
Data set [8] deals with TSP4-N335, the 335 N-terminal residues of tailspike protein 4 of bacteriophage CBA120 (AD-XD1-XD2-XD3) (bacteriophage CBA120) (UniProt G3M192). The description is as above. The source holds these as a separate data set.
Data set [9] deals with the molecule itself. In words: AUC; sedimentation velocity in 50 mM TRIS pH 8.0 or HEPES pH 7.3, 150 mM NaCl, 0.1-0.5 mM Zn2+ (100 μM ZnCl2 in the legend).
In data set [10] the target is TSP4-N335, the 335 N-terminal residues of tailspike protein 4 of bacteriophage CBA120 (AD-XD1-XD2-XD3) (bacteriophage CBA120) (UniProt G3M192). The description is as above.
Data set [11] deals with TSP4-N181 (AD-XD1 of TSP4) (bacteriophage CBA120) (UniProt G3M192). In words: AUC; sedimentation velocity of single proteins and of mixtures, PBS pH 7.4, 20 °C, absorbance at 280 nm, 30-50 krpm; c(s) by SEDFIT; Kd and koff by Lamm equation modelling with a two-site heterogeneous association model A + B + B = AB + B = ABB (A: TSP4-N335 hexamer, B: partner TSP trimer; two symmetric sites, no cooperativity). This is another data set of the same source.

Data set [12] has as its target TSP4-N490 (AD-XD1-XD2-XD3 region followed by the D1-D2 head region of TSP4) (bacteriophage CBA120) (UniProt G3M192). Described as above. This is another data set of the same source.

As usually defined, the stoichiometry N is a count of units in the complex or per binding partner. Usually Kd stands for the free concentration of one partner at which half of the binding sites on the other are occupied at equilibrium, for simple one-to-one binding. The koff is the first-order rate constant of dissociation.

As for “TSP4-N181 (AD-XD1 of TSP4) (from UniProt G3M192 1-181) (domain or fragment)”, the stoichiometry N in data set [1] was 6.
Consider “TSP4-N253 (AD-XD1-XD2 of TSP4, lacking XD3) (from UniProt G3M192 1-253) (domain or fragment)”, for which, in [2], the stoichiometry N was determined as 6.
On to “TSP4-N490 (AD-XD1-XD2-XD3 region followed by the D1-D2 head region of TSP4) (from UniProt G3M192 1-490) (domain or fragment)”, for which the stoichiometry N in [3] came to 6.
On to “TSP4 devoid of the AD-XD1 domains, residues 185-1036 (from UniProt G3M192 185-1036) (domain or fragment)”, for which the stoichiometry N in data set [4] worked out at 3.
In the case of “TSP4-N335, the 335 N-terminal residues of tailspike protein 4 of bacteriophage CBA120 (AD-XD1-XD2-XD3) (from UniProt G3M192 1-335) (domain or fragment)”, the stoichiometry N in data set [5] (mixed monomer and hexamer sample) amounted to 3; in [5] (purified single-species sample) it was 6.

B1: Tailspike protein 1 of bacteriophage CBA120 (natural protein)
chain: MNEMFSQGGKGSTGILTNKQAVARHFGVKQSEVVYFSVGVDLGGYKVIYDKETQRAYSLPVGIASGTTAVSLSTAAVLVHSAGSVDLGSLAVSREEYVTLPGSFDSGSTLNVKNELLTYTDGKYRWDGILPKTVAPGSTPASTGGVGLGAWISVGDASLRTQLANGDGSLIGIHPQGTLNNVLTVRTPEQYNAVGDGIADDTSKLKEMLSDINNVPETLPDAAAVNSYMEQVAVKIDLTKLYRFTETLYIPPGVSIEIPTSNFFTRECKQGLFYDPVDKNTAAISLMVYRKQPDGSYKLNKDVDYYPTGLDIDNGDAITCARKIDINNLNLITAPGVKVGVKWIGGAGCTTKGLSIGENTGSDITTARLPRVGLLQSASWGSIHENLRILYKTQGAVFIDSNGGAAVNNAYISRLGNTNGELEQAVYKPAGFTEVGDVAVTQFAGSEVKFNSPIIEQASFDFVHAGRDTDSYGLFMVDKPHIESSGGKKKHSFYLINTSSNVTLSGVGLSGQDPDLDSMYFLKNCPETARNVVRGQMPISGVKLVRGTGNYPTLVLDCTNMGSQFQFGEVGDIFYIKDVVGVKADTLYIDPVNGNNYNWGTNGTKPIRELTNIAKICQLFRCKSVYLNAGESVITSNTELPMVVFEGPGSLKANSGSSFLIKAGGTLSLIGLSGISTDGGHMFRVSTVEKVNIHTNCSVNAGAAYVVLSEVQGNIEYRQLFYSVNCSKYIGATAGQTIAGIMVKTATRPTGIDAAPVDGNVSLTYKIIES
notes: Homotrimer by SV (MWcalc of the trimer 248 kDa); also called TSP1
As to B1, the Kd stood at 80 nM in data set [6] and 60 nM in data set [8]. In addition, the “stoichiometry N” value in [7] is 3. In data set [8], the koff stood at 0.0001 s⁻¹. The stoichiometry N (TSP1:TSP4-N335 (chains)) in data set [8] (one trimer bound per hexamer) was determined as 0.5; in [8] (two trimers bound per hexamer), 1.

B2: TSP1 head, residues 14-166 (D1-D2 domains and the alpha-helical neck, without the 13 N-terminal amino acids) (domain or fragment, bacteriophage CBA120, UniProt G3M189 14-166, looked up)
chain: GILTNKQAVARHFGVKQSEVVYFSVGVDLGGYKVIYDKETQRAYSLPVGIASGTTAVSLSTAAVLVHSAGSVDLGSLAVSREEYVTLPGSFDSGSTLNVKNELLTYTDGKYRWDGILPKTVAPGSTPASTGGVGLGAWISVGDASLRTQLANG
notes: TSP1 of phage CBA120, D1-D2 head and neck, residues 14-166; Trimerisation was promoted by Zn2+; also called TSP1_(14-166); TSP1-N_(14-166)
In the case of B2, in data set [9], the “stoichiometry N” value amounted to 3. Moreover, the stoichiometry N (TSP1 (14-166):TSP4-N335 (chains)) in data set [10] (one trimer bound per hexamer) is 0.5; in data set [10] (two trimers bound per hexamer) it was 1.

B3: Tailspike protein 2 of bacteriophage CBA120 (natural protein, UniProt G3M190 1-921, looked up)
chain: MTRNVEELFGGVITAPHQIPFTYKSNVGGETFLSLPFYPVTGVVTINGGMQVPLDNFEIEGNTLNLGRALSKGDVVYCLFDKILSPEDTAKGIRIYKFQAVGGETEFTPDFTSYGVQSLYIGGEYKTPEIEYSYDSTTGKVSLQTALSAGVWVVAEMSVKQPNISPAFDRSIQEIARSANVKDSEVIVSTDTISLLDGKKVVYDIATQTSYGLPTIPDGSVISSVSAGKLNYNPGDVQVDLLPLEDSFINVINTLGRNDGAKYIGECHSVADLRNTEPTMDGQRIILKQHTAGTLLGGGVFRALIDGTGKTDNNGTVIKTVGGAAWLRVNADRVNPFMFGALGGSNDDTIPVQSCVDSGKATQLTDAHYVSNIQLKYNTSSIYGSGLHYSRLHQLPSATGNCITIKDTCSLIVLDAFGVYGTGAQQGTSFTAGTTGIYVETPSGLSADYPFHTTADPRRDLCISKVHIAGFDEYGLNIDSGNFSVTTDSLLVNHINQVGVRCATTDWTWTNIQVNTCGKQCLVLDGCGNGRIIGGKFIWANWQPYGTVGQFPGITINNSQNMVINGIEVQDCGGNGIEISESYSISMNGLNTNRNGINANNTFYNIVFNKSDAVINGFVGLNYAANSGSGANSSAGNFQFLSNDCSVTINGVVETGYMGINFIGDNNIINPTNSDLSINGLVNYSKTGLQTMNETPTFDGVSTTPVYVSVPSSVGQVNGLRLSQANKDKLLYSRTAGPEGITMAAVIVPTISGAEVFNFMAIGSGFSDTSNSLHLQLVIDASGKQTIALLLGGDGTTQILSGDLPNDLKLQSGVPYHIAIGAKPGYFWWSILNIQTGKRIRRSFRGAYLAVPFNSIFGLTSSLTFFSDSNAGGDACSGVGAKVYVGMFSSENDYVASRYYNLINPVDPTKLISYRILDSSI
notes: Homotrimer by SV (MWcalc of the trimer 297 kDa); also called TSP2
Take B3: the Kd in data set [6] came out at 75 nM; in data set [8], 110 nM. Moreover, the “stoichiometry N” value in [7] turned out to be 3. Besides, in data set [8], the koff came out at 0.00025 s⁻¹. For the same molecule, the stoichiometry N (TSP2:TSP4-N181 (chains)) in data set [11] (one trimer bound per hexamer) worked out at 0.5; in [11] (two trimers bound per hexamer), 1. In addition, the stoichiometry N (TSP2:TSP4-N490 (chains)) in [12] (one trimer bound per hexamer) was 0.5; in data set [12] (two trimers bound per hexamer), 1.
